Laboratory results from publication PMC10584687.
Values belong to the binder of their own block, whether it stands above or below them.

Columns and labels:
[1] = target: GluA2–γ5 fusion construct (N terminus of γ5 covalently linked to the C terminus of GluA2) (rat | mouse) (UniProt Q8VHW4); test: cryo-EM structure; complex co-purified from HEK293S GnTI− cells transduced with GluA2–γ5 (no antagonists in the medium) by the streptavidin affinity tag and SEC in 150 mM NaCl, 20 mM Tris pH 8.0, 0.005% CHS, 0.05% digitonin, 1 mM βME; grids with 100 µM ZK, no ligand (apo), 100 µM ZK + 100 µM PMP, or 10 mM Glu
[2] = target: GluA2 (modified calcium-permeable rat GluA2(Q) flip subunit, GluA2*) (rat)
[3] = target: GluA2–γ5 fusion construct (N terminus of γ5 covalently linked to the C terminus of GluA2) (rat | mouse) (UniProt Q8VHW4)
[4] = target: GluA2 (modified calcium-permeable rat GluA2(Q) flip subunit, GluA2*) (rat); remark: listed apart in the source
[5] = target: GluA2–γ5 fusion construct (N terminus of γ5 covalently linked to the C terminus of GluA2) (rat | mouse) (UniProt Q8VHW4); remark: listed apart in the source
[6] = target: GluA2 (modified calcium-permeable rat GluA2(Q) flip subunit, GluA2*) (rat); remark: listed apart in the source
[7] = target: GluA2–γ5 fusion construct (N terminus of γ5 covalently linked to the C terminus of GluA2) (rat | mouse) (UniProt Q8VHW4); remark: listed apart in the source
[8] = target: GluA2 (modified calcium-permeable rat GluA2(Q) flip subunit, GluA2*) (rat); test: cryo-EM structure; complex co-purified from HEK293S GnTI− cells transduced with GluA2–γ5 (no antagonists in the medium) by the streptavidin affinity tag and SEC in 150 mM NaCl, 20 mM Tris pH 8.0, 0.005% CHS, 0.05% digitonin, 1 mM βME; grids with 100 µM ZK, no ligand (apo), 100 µM ZK + 100 µM PMP, or 10 mM Glu

stoichiometry N (CNIH2 subunits per GluA2–γ5 tetramer) [1]: 2 | deactivation time constant τDeact, whole-cell patch clamp, HEK293 cells cotransfected with GluA2 and wild-type human CNIH2, 2 ms 3 mM Glu, −60 mV [6]: 10.8 ms | deactivation time constant τDeact, whole-cell patch clamp, HEK293 cells cotransfected with GluA2–γ5 and wild-type human CNIH2, 2 ms 3 mM Glu, −60 mV [7]: 4.21 ms
B1: cornichon-2 (CNIH2), endogenous human (natural protein)
chain: MAFTFAAFCYMLTLVLCASLIFFVIWHIIAFDELRTDFKNPIDQGNPARARERLKNIERICCLLRKLVVPEYSIHGLFCLMFLCAAEWVTLGLNIPLLFYHLWRYFHRPADGSEVMYDAVSIMNADILNYCQKESWCKLAFYLLSFFYYLYSMVYTLVSF
fraction of nondesensitized channels ISS/IMax, whole-cell patch clamp, HEK293 cells cotransfected with GluA2 and wild-type human CNIH2 [2]: 0.211 | fraction of nondesensitized channels ISS/IMax, whole-cell patch clamp, HEK293 cells cotransfected with GluA2–γ5 and wild-type human CNIH2 [3]: 0.06 | time constant of recovery from desensitization τRecDes, two-pulse protocol, HEK293 cells cotransfected with GluA2 and wild-type human CNIH2 [4]: 21.7 ms | time constant of recovery from desensitization τRecDes, two-pulse protocol, HEK293 cells cotransfected with GluA2–γ5 and wild-type human CNIH2 [5]: 36.8 ms | desensitization time constant τDes, whole-cell patch clamp, HEK293 cells cotransfected with GluA2 and wild-type human CNIH2, 500 ms 3 mM Glu, −60 mV [6]: 28 ms | desensitization time constant τDes, whole-cell patch clamp, HEK293 cells cotransfected with GluA2–γ5 and wild-type human CNIH2, 500 ms 3 mM Glu, −60 mV [7]: 14.8 ms

stoichiometry N (γ5 subunits per AMPAR tetramer) [8]: 2
B2: TARP γ5 (C-terminally truncated mouse subunit, Cacng5, residues S2-E207) (domain or fragment)
chain: SACGRKALTLLSSVFAVCGLGLLGIAVSTDYWLYLEEGIILPQNQSTEVKMSLHSGLWRVCFLAGEERGRCFTIEYVMPMNSQMTSESTVNVLKMIRSATPFPLVSLFFMFIGFILSNIGHIRPHRTILAFVSGIFFILSGLSLVVGLVLYISSINDEMLNRTKDAETYFNYKYGWSFAFAAISFLLTESAGVMSVYLFMKRYTAE
